We go through 4 molecules from patent US20250136687A1 (SHANDONG SIMCERE BIOPHARMACEUTICAL, published 2025).

Usually EC50 stands for the midpoint of the concentration-response curve. As a reminder, the Kd is the constant that tells how readily two partners part at equilibrium. A word on the koff: it is a measure of how fast the partners let go of each other. The term kon denotes a measure of how fast the partners come together.

Substitutions are numbered along the chain they refer to. Read-outs that look alike come from different tables or passages of the source.

In assay [1] the target is T1, human CD3ε/δ-His (human, UniProt P07766 23-126; P04234 22-105).
T1 construct: Bought recombinant heterodimer with His tag; also called human CD3ε/δ protein
The experiment in a line: ELISA, coated antigen. Here is the method: (§1) To detect the binding activity of the humanized antibodies to CD3 protein, CD3 protein was diluted with PBS to the final concentration of […], then added to a 96-well ELISA plate at 50 μL/well, and the plate was sealed with a plastic film, and incubated overnight at 4° C. On the next day, the plate was washed 2 times with PBS, and a blocking solution [PBS+2% (v/v) BSA] was added for blocking at room temperature for 2 h. The blocking solution was poured off, and the antibody (initial concentration of 100 nM, and gradient dilution at 1:10) or a negative control antibody was added at 50 µl/well. After incubation at 37° C. for 2 h, the plate was washed 3 times with PBS. […] TMB substrate was added at 50 μl/well, and incubated at room temperature for 10 min, and then a stop solution (1.0 N HCl) was added at 50 μl/well. The OD450 nm values were read by an ELISA microplate reader (Multimode Plate Reader, EnSight, purchased from Perkin Elmer).
For orientation: An ELISA detects its analyte on a solid surface through an enzyme-linked reagent.

In assay [2] the target is T2, recombinant human CD3ε-ECD His protein (human, UniProt P07766 23-126).
T2 construct: extracellular domain; also called human CD3ε-His; CD3ε antigen protein; not shown: His tag
The experiment in a line: ELISA, coated antigen. Here is the method:
as §1

Assay [3] addresses T3, monkey CD3ε/δ-His (monkey, UniProt Q95LI5 22-117; Q95LI8 22-105).
T3 construct: Bought recombinant heterodimer with His tag
The experiment in a line: ELISA, coated antigen. Here is the method: as §1
(§2) To detect the binding activity of the humanized antibodies to monkey CD3 protein, CD3 protein was diluted with PBS to the final concentration of […], and then added to a 96-well ELISA plate at 50 μl/well.

The target of assay [4] is T4, monkey CD3ε protein (monkey, UniProt Q95LI5 22-117, limits assumed).
T4 sequence (looked up): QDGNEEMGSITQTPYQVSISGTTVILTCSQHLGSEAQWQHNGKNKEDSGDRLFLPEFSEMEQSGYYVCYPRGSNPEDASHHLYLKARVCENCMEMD
The experiment in a line: ELISA, coated antigen. Here is the method: as §1, §2

The target in assay [5] is T5, human CD3 on the cell surface (Jurkat cells, expanded human T cells, Jurkat-Lucia NFAT cells, human PBMC) (human, UniProt P07766 23-207; P04234 22-171; P09693 23-182).
T5 construct: whole, on cells; Endogenous CD3 within the TCR-CD3 complex on cells (also zeta chains and TCR); the cell type is named under assay
The assay can be described thus: FACS, expanded human T cells. Here is the method: (§3) The binding of the chimeric antibodies to CD3 on the cell surface was analyzed by detecting the binding of the antibodies to Jurkat cells and human T cells. Suspension cells Jurkat cells were scale-up cultured in T-75 cell culture flasks to the logarithmic growth phase, the supernatant of the medium was discarded by centrifugation, and the cell pellet was washed 2 times with PBS for later use. The expanded human T cells were washed 2 times with PBS for later use. After counting the cells in the previous step, the cell pellet was resuspended with [PBS+2% (w/w) BSA] blocking solution to 4×10⁶ cells/ml, and added to a 96-well FACS reaction plate at 50 μl/well, and then the chimeric antibody to be tested was added at 50 μl/well, and incubated at 4° C. for 1 h. The cells were centrifuged and washed 3 times with a PBS buffer. […] The cells were centrifuged and washed 5 times with PBS, and FACS (FACS Canto™, purchased from BD Company) was used for detection and result analysis. Data analysis was performed by software (CellQuest) to obtain the mean fluorescence […] (MFI) of the cells. And then software (GraphPad Prism8) was used for analysis, data fitting, and EC50 value calculation. The same method was used to simultaneously detect the binding of the chimeric antibodies to endogenous CD3 negative cells MOLT4 cells.
The expanded human PBMC cells were collected, and FACS detection and data analysis were performed according to the method in Example 5.1.

Assay [6] deals with T6, cynomolgus monkey CD3 on the surface of expanded monkey T cells (cynomolgus monkey, UniProt Q95LI5 22-198; Q95LI8 22-171; Q95LI7 23-181).
T6 construct: whole, on cells; Endogenous CD3 within the TCR-CD3 complex on T cells expanded from cynomolgus monkey PBMC
The assay can be described thus: FACS, expanded monkey T cells. Here is the method:
as §3
The expanded monkey T cells were collected, and FACS detection and data analysis were performed according to the method in Example 5.1.
Background: In flow cytometry, cells or beads pass a laser one at a time.

Assay [7] addresses T1, human CD3ε/δ-His. The experiment in a line: SPR, antibody captured on Protein A chip. Here is the method: (§4) Running buffer was HBS-EP+(10 mM HEPES, 150 mM NaCl, 3 mM EDTA, 0.05% surfactant P20) (GE Healthcare; BR-1006-69). The flow-through cell was set to 25° C. The sample block was set to 16° C. Both were pretreated with the running buffer. In each cycle, an antibody to be detected was first captured with a Protein A chip, and then a single concentration of CD3ε antigen protein was injected. The binding and dissociation processes of the antibody and the antigen protein were recorded, and finally Glycine pH 1.5 (GE Healthcare; BR-1003-54) was used to complete chip regeneration. The binding was measured by injecting different concentrations of recombinant human CD3ε proteins in a solution for 240 s with a flow rate of 30 μL/min. The concentration started from 200 nM (see the detailed results for the actual concentration in the test) and was diluted at 1:1, making a total of 5 concentrations. The dissociation phase was monitored for up to 600 s and was triggered by switching from sample solution to running buffer. The surface was regenerated by washing with a 10 mM glycine solution (pH 1.5) for 30 s at a flow rate of 30 μL/min. Bulk refractive index difference was corrected by subtracting the response obtained from the goat anti-human Fc surface, and the blank injection was subtracted at the same time (=double reference). For calculation of apparent KD value and other kinetic parameters, Langmuir 1:1 model was used.
On the technique in general: In SPR one partner is held on a chip, and binding of the other changes the refractive index at the surface.

The target in assay [8] is T2, recombinant human CD3ε-ECD His protein. The experiment in a line: SPR, antibody captured on Protein A chip. Here is the method:
as §4

Assay [9] deals with T5, human CD3 on the cell surface (Jurkat …). The assay can be described thus: FACS, Jurkat cells. Here is the method:
as §3

Assay [10] shares this target. The assay can be described thus: cell-based or functional assay.
For assay [11] the target is unchanged. The assay can be described thus: FACS, expanded human T cells. Here is the method:
as §3
This is another data set of the same source.

The target in assay [12] is T6, cynomolgus monkey CD3 on the surface of …. The assay can be described thus: FACS, expanded monkey T cells. Here is the method:
as §3
FACS detection and data analysis were performed on the cryopreserved monkey T cells of Example 2.4 according to the method in Example 5.1.
The source holds these as a separate data set.

The target of assay [13] is T2, recombinant human CD3ε-ECD His protein. The assay can be described thus: SPR (Biacore), antibody captured on Protein A chip. Here is the method: Sample buffer and running buffer were HBS-EP+(10 mM HEPES, 150 mM NaCl, 3 mM EDTA, 0.05% surfactant P20) (GE Healthcare; BR-1006-69). The flow-through cell was set to 25° C. The sample block was set to 16° C. Both were pretreated with the running buffer. In each cycle, the antibody to be detected was first captured with a Protein A chip, and then a single concentration of CD3ε antigen protein (purchased from Sino Biological, Inc. (China), catalog number: 10977-H08H) was injected. The binding and dissociation processes of the antibody and the antigen protein were recorded, and finally a glycine solution (pH 1.5, GE Healthcare; BR-1003-54) was used to complete chip regeneration. The binding was measured by injecting different concentrations of recombinant human CD3ε-ECD His proteins in a solution for 240 s with a flow rate of 30 μL/min. The concentration started from 200 nM (see the detailed results for the actual concentration in the test) and was diluted at 1:1, making a total of 5 concentrations. The dissociation phase was monitored for up to 600 s and was triggered by switching from sample solution to running buffer. The surface was regenerated by washing with a 10 mM glycine solution (pH 1.5) for 30 s at a flow rate of 30 μL/min. Bulk refractive index difference was corrected by subtracting the response obtained from the goat anti-human Fc surface. Blank injection was also subtracted (=double reference). For calculation of apparent KD and other kinetic parameters, Langmuir 1:1 model was used.

T5 sequence (P07766 23-207, chain 1 of 3): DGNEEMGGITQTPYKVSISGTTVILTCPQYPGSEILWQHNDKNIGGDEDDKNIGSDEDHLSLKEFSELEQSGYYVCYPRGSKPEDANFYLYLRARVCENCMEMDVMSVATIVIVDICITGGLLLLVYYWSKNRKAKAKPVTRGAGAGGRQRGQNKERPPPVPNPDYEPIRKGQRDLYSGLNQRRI
T5 sequence (P04234 22-171, chain 2 of 3): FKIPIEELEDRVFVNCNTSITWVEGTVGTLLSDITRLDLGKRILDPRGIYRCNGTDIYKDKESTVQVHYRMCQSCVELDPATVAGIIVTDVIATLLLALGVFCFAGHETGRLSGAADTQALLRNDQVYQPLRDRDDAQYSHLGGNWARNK
T5 sequence (P09693 23-182, chain 3 of 3): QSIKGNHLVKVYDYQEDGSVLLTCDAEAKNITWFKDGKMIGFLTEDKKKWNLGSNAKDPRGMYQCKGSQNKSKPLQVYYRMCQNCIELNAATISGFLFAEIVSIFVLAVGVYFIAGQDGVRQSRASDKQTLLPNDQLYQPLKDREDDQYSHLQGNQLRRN
T2 sequence (P07766 23-126): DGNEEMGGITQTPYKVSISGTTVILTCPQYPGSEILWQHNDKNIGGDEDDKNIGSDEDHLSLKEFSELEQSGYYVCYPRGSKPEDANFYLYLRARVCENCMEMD
T1 sequence (P07766 23-126, stated change not applied, form in doubt, chain 1 of 2): as the sequence (P07766 23-126) above
T1 sequence (P04234 22-105, stated change not applied, form in doubt, chain 2 of 2): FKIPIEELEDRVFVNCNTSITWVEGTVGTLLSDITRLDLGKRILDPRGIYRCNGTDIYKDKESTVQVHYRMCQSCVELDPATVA
T6 sequence (Q95LI5 22-198, chain 1 of 3): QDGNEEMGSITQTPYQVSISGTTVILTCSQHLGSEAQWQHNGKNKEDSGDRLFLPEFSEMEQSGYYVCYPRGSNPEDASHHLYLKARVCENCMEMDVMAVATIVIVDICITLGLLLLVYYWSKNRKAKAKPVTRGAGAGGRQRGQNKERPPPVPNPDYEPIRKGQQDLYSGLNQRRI
T6 sequence (Q95LI8 22-171, chain 2 of 3): as the sequence (P04234 22-171, chain 2 of 3) above, with I5V, N15K, I20V, S32T, D33N, I34N, T64A, S74N, V83L, H141R counted along it
T6 sequence (Q95LI7 23-181, chain 3 of 3): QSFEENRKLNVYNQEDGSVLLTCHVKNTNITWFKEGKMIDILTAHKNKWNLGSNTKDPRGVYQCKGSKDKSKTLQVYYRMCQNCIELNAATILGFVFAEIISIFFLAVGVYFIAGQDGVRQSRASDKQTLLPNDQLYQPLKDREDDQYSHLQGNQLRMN
T3 sequence (Q95LI8 22-105, stated change not applied, form in doubt, chain 2 of 2, one chain of several): as the sequence (P04234 22-105, stated change not applied, form in doubt, chain 2 of 2) above, with I5V, N15K, I20V, S32T, D33N, I34N, T64A, S74N, V83L counted along it

B1: 5-40.21-H3-L1 humanized antibody (antibody, human IgG1, kappa, V domains shown)
VH: EVQLVQSGAEVKKPGASVKVSCKASGYTFTSYWMHWVRQAPGQGLEWMGNTYPGSGSTNYDEKFKSRVTITVDSSASTAYMELSSLRSEDTAVYYCTRDRYGVYYFDYWGQGTTVTVSS
VL: DIVMTQSPDSLAVSLGERATINCKSSQSLLNSRTRKNYLAWYQQKPGQSPKLLIYWASTRESGVPDRFSGSGSGTDFTLTISSLQAEDVAVYYCTQSYNLRTFGGGTKVEIKR
Regarding B1, the concentration for a half-maximal effect (EC50) in assay [1] turned out to be 0.28 nM; in assay [2] it was 0.13 nM; in assay [3], 0.00456 nM; in assay [4], 0.000467 nM; in assay [5], 1.65 nM; in assay [6], 0.73 nM. The max-OD450 in assay [1] was determined as 3.15 OD450; in [2], 1.53 OD450; in assay [3], 3.16 OD450; in assay [4] it was 2.84 OD450. The max_MFI in [5] turned out to be 18000 MFI; in assay [6] it was 17800 MFI. Moreover, the Kd stood at 115 nM in assay [7] and 1.87 nM in assay [8]. Besides, the koff worked out at 0.0184 s⁻¹ in [7] and 0.000485 s⁻¹ in [8]. In addition, the on-rate constant (kon) in assay [7] stood at 161000 M⁻¹ s⁻¹; in assay [8], 260000 M⁻¹ s⁻¹.

B2: 5-7.13 human-murine chimeric antibody (antibody, human IgG1, kappa, V domains shown)
VH: QVQLQQPGTELVKPGASVKLSCKASGYTFTSYWVHWVKQRPGQGLEWIGNINPSDGVTNYNEKFKSRATLTVDKSSSTAYMQLSSLTSEDSAVYYCTRDAYGQYYFDDWGQGTTLTVSS
VL: DIVMSQSPSSLVVSAGEKVTMSCKSSQSLLNSRTRKNYLAWYQQKPGQSPKLLIYWASVRDSGVPDRFTGSGSGTDFTLTISNVQAEDLAVYYCIQSYYLRTFGGGTILEIKR
notes: Human IgG1 chimera
In assay [9], B2 gave a 50% effective concentration (EC50) of 0.06 nM and an MFI_Max of 32200 MFI. Also, in assay [10], the “EC50 (nM), luciferase reporter, Jurkat-Lucia NFAT cells” value (“EC50 (nM), luciferase reporter” below) was 0.7 nM and the “Maximum response value (RLU)” value was determined as 55400 RLU. For the same molecule, in assay [11], it took 0.1 nM to reach a half-maximal effect (EC50) and the MFI_Max stood at 15900 MFI. Moreover, in assay [12], the 50% effective concentration (EC50) came to 0.09 nM and the MFI_Max worked out at 26500 MFI. In assay [13], the Kd stood at 0.345 nM, the off-rate (koff) was determined as 0.00027 s⁻¹ and the kon was determined as 785000 M⁻¹ s⁻¹.

B3: 6-44.5 human-murine chimeric antibody (antibody, human IgG1, kappa, V domains shown)
VH: EVQLQQSGPELVKPGASVKMSCKASGHTFTSHIMHWVKQKPGQGLEWIGYINPNNDRTEYSEKFKGKATLTSDKSSSTAYMELSSLTSEDSAVYYCAGEAYYSNSLYAMDYWGQGTSVTVSS
VL: B2 VL with V12A, L30F, K51E, V59T, D61E, D66V, N83S, I95K, I108K, I111V
notes: Human IgG1 chimera
For B3, in [9], it took 0.15 nM to reach a half-maximal effect (EC50) and the MFI_Max is 31700 MFI. Also, in [10], the “EC50 (nM), luciferase reporter” value worked out at 1.84 nM and the “Maximum response value (RLU)” value stood at 33600 RLU. In [11], a half-maximal effect (EC50) was put at 0.62 nM and the MFI_Max was 13300 MFI. In [12], this molecule came in with an EC50 of 0.42 nM and an MFI_Max of 27100 MFI. In addition, in assay [13], the Kd stood at 0.445 nM, the koff came out at 0.000259 s⁻¹ and the association rate constant (kon) was 581000 M⁻¹ s⁻¹.

B4: 5-40.21 human-murine chimeric antibody (antibody, human IgG1, kappa, V domains shown)
VH: QVQLQQPGSELVRPGASVKLSCKASGYTFTSYWMHWVKQRPGQGLEWIGNTYPGSGSTNYDEKFKSKATLTVDSSSSTAYMQLSSLTSEDSAVYYCTRDRYGVYYFDYWGQGTTLTVSS
VL: B2 VL with V12A, V59T, D61E, T69S, N83S, I95T, Y99N, I108K
notes: Human IgG1 chimera
In assay [9], B4 gave an EC50 of 0.44 nM and an MFI_Max of 26700 MFI. In assay [10], the “EC50 (nM), luciferase reporter” value was 4.79 nM and the “Maximum response value (RLU)” value was 46200 RLU. In assay [11], this molecule showed an EC50 of 0.99 nM and an MFI_Max of 11400 MFI. In addition, in [12], the EC50 was 1.09 nM and the MFI_Max was found to be 24400 MFI. In assay [13], the Kd amounted to 0.553 nM, the off-rate constant (koff) was determined as 0.000379 s⁻¹ and the kon was found to be 686000 M⁻¹ s⁻¹.
